Reference: paper PMC2115787
Where two headings read alike, the source gives them in different places.

Experiments:
Test in all cases: light chain exchange into myosin
[1] = molecular target: myosin from adult White Rock chicken pectoralis muscle (chicken) (UniProt P02609)
[2] = molecular target: myosin from adult White Rock chicken pectoralis muscle (chicken) (UniProt P02609); remark: listed apart in the source
[3] = molecular target: myosin from adult White Rock chicken pectoralis muscle (chicken) (UniProt P02609); remark: listed apart in the source
[4] = molecular target: myosin from adult White Rock chicken pectoralis muscle (chicken) (UniProt P02609); remark: listed apart in the source

regulatory light chain LC2 singly labeled with fluorescein at Cys 125 (from UniProt P02609 1-168) (natural protein)
percent exchange [1]: 49%
percent exchange [2]: 7%
percent exchange [3]: 84%
percent exchange [4]: 26%
